The source of these data is patent US20260008853A1 (BEONE MEDICINES I, published 2026).

Test [1] deals with Human CD16B (NA2) on NK92mi/CD16B (NA2) cells (human) (UniProt O75015). Kind of test: flow cytometry on NK92mi/CD16B(NA2) cells, anti-human IgG Fc detection.
Test [2] has as its target Human CD16B (NA1) on NK92mi/CD16B (NA1) cells (human) (UniProt O75015). Kind of test: flow cytometry on NK92mi/CD16B(NA1) cells, anti-human IgG Fc detection.
Test [3] concerns the target Human CD16A (V158) on NK92mi/CD16A V158 cells (human) (UniProt P08637). Kind of test: flow cytometry on NK92mi/CD16A V158 cells, anti-human IgG Fc detection.
In a further test the target is T1, human CD16B-His6 (SH) (human, UniProt O75015 17-200).
T1 construct: Bought ECD fragment (Sino Biologics); also called CD16B SH allotype; human CD16B (SH); not shown: six-histidine tag
Kind of test: antigen ELISA, coated human CD16B-His6 (SH), HRP anti-human IgG.

Chain of Human CD16A (V158) on NK92mi/CD16A V158 cells (human) (P08637 17-254 F176V limits assumed): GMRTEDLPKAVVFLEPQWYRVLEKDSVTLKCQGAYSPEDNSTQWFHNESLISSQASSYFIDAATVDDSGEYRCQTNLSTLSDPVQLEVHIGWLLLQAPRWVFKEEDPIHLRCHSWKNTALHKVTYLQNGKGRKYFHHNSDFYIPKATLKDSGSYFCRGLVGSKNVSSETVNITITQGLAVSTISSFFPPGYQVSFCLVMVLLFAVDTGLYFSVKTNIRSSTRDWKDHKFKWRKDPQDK
Chain of Human CD16B (NA1) on NK92mi/CD16B (NA1) cells (human) (O75015 other isoform, or with tags, fused parts or gaps limits assumed): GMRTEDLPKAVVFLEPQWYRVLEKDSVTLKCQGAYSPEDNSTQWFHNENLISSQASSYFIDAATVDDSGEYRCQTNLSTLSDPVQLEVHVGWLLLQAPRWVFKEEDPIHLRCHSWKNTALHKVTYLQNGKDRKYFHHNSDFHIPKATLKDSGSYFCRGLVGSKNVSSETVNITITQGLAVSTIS
Chain of Human CD16B (NA2) on NK92mi/CD16B (NA2) cells (human) (O75015 17-200 N65S limits assumed): as the sequence (O75015 other isoform, or with tags, fused parts or gaps limits assumed) above, with R20S, N49S, D66N, V90I counted along it
T1 sequence (O75015 17-200): as the sequence (O75015 other isoform, or with tags, fused parts or gaps limits assumed) above, with R20S, D66N, V90I counted along it
Description for human CD16B-His6 (SH): For antigen ELISA, a Maxisorp immunoplate was coated with antigens (human CD16A (V158), human CD16A (F158), human CD16B (NA1), human CD16B (NA2), human CD16B (SH), or cyno CD16) and blocked with 3% BSA (w/v) in PBS buffer (blocking buffer). Monoclonal VHH-Fc antibodies were blocked with blocking buffer for 30 min and added to wells of the ELISA plate for 1 h.

In the case of Human IgG (antibody), the figures for the half-maximal effective concentration (EC50) in test [1], in test [2] and in test [3] were 0.314 µg/mL, 10.3 µg/mL and 0.0112 µg/mL, respectively. Moreover, the values for the EMAX in test [1], in test [2] and in test [3] were 7.66, 7.46 and 7.55, respectively.

B1: LS21 (scFv)
scFv: EVQLVQSGAEVKKPGESLKVSCKASGYTFTSYYMHWVRQAPGQGLEWMGIINPSGGSTSYAQKFQGRVTMTRDTSTSTVYMELSSLRSEDTAVYYCARGSAYYYDFADYWGQGTLVTVSSGGGGSGGGGSGGGGSQPVLTQPSSVSVAPGQTATISCGGHNIGSKNVHWYQQRPGQSPVLVIYQDNKRPSGIPERFSGSNSGNTATLTISGTQAMDEADYYCQVWDNYSVLFGGGTKLTVL
notes: also called positive control
For B1, the binding result with human CD16B-His6 (SH) is “no binding (tested: 1 ug/ml)”.
